Data on 6 substances can be found in paper PMC8904060.

Assay [1] concerns the target FimH variant 9 (recombinant dscFimH-His6) (E. coli | not stated) (UniProt P08191). The assay can be described thus: SPR; BIAcore T200; FimH variant immobilised on CM5 chip (target amount 2,000 RU); GP2 isoforms as analytes at 0.5, 2.0, 6.0, 16 and 29 uM in PBS-P+; 25 C, 30 uL/min; association 3 min, dissociation 10 min; global 1:1 Langmuir fit. In general terms: SPR reads the build-up and loss of mass on a sensor chip optically.

Assay [2] concerns the target FimH variant 5 (recombinant dscFimH-His6) (E. coli | not stated) (UniProt P08191). The description is as above.

Take “bovine GP2 isoform 1 (major zymogen granule membrane glycoprotein 2), recombinant secreted form (natural protein)”: in assay [1], the Kd worked out at 340 nM, the koff turned out to be 0.000187 s⁻¹ and the kon is 551 M⁻¹ s⁻¹. In assay [2], the Kd came to 179 nM, the koff came to 9.65e-05 s⁻¹ and the kon turned out to be 538 M⁻¹ s⁻¹.

For “bovine GP2 isoform 2 (major zymogen granule membrane glycoprotein 2), recombinant secreted form (natural protein)”, in assay [1], the Kd worked out at 93.4 nM, the koff was determined as 5.72e-05 s⁻¹ and the kon stood at 612 M⁻¹ s⁻¹. For the same substance, in assay [2], the Kd was determined as 136 nM, the koff was 7.41e-05 s⁻¹ and the kon amounted to 545 M⁻¹ s⁻¹.

With “human GP2 isoform 2, recombinant (natural protein)”, in assay [1], the Kd came to 22.5 nM, the koff is 2.38e-05 s⁻¹ and the kon stood at 1060 M⁻¹ s⁻¹. Besides, in assay [2], the Kd came to 97.8 nM, the koff turned out to be 0.000102 s⁻¹ and the kon turned out to be 1040 M⁻¹ s⁻¹.

For “human GP2 isoform 4, recombinant (natural protein)”, in assay [1], the Kd worked out at 0.927 nM, the off-rate (koff) worked out at 4.31e-07 s⁻¹ and the kon amounted to 465 M⁻¹ s⁻¹. In addition, in assay [2], the Kd came out at 21.7 nM, the koff turned out to be 1.68e-05 s⁻¹ and the kon is 772 M⁻¹ s⁻¹.

With “porcine GP2 isoform 1, recombinant (natural protein)”, in assay [1], the dissociation constant (Kd) was found to be 158 nM, the koff was determined as 8.44e-05 s⁻¹ and the kon is 535 M⁻¹ s⁻¹. Besides, in assay [2], the Kd stood at 22.6 nM, the koff amounted to 1.71e-05 s⁻¹ and the kon amounted to 758 M⁻¹ s⁻¹.

With “porcine GP2 isoform 2, recombinant (natural protein)”, in assay [1], the Kd is 98.5 nM, the koff came out at 8.84e-05 s⁻¹ and the kon was 898 M⁻¹ s⁻¹. In addition, in assay [2], the Kd stood at 95.7 nM, the koff is 8.32e-05 s⁻¹ and the kon was 870 M⁻¹ s⁻¹.

As a reminder, the Kd is the free concentration of one partner at which half of the binding sites on the other are occupied at equilibrium, for simple one-to-one binding. Usually koff stands for a measure of how fast the partners let go of each other. By kon is commonly meant the second-order rate constant of association.
